The data set in a line: protein stability index of a GFP-peptide fusion (GPS, HEK-293T) (PSI 1-6); higher = more stable. The note with it: c terminus: a fixed tail appended.

Our source for the protein stability index values is the supplement of paper PMC10567573.

± gives the standard deviation.
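Note: 24-mer peptide tiles fused after GFP, lentivirally expressed, FACS-sorted into six equal bins by GFP/DsRed ratio, decoded by Illumina sequencing, PSI is the read-weighted mean bin number.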

On to FGVKYNPYTRSIQILKDTKSITSA [TPH1], for which the protein stability index was 2.43 ± 0.63 (treatment: DMSO) and 2.46 ± 0.11 (treatment: MLN4924 1 uM, 8 h).

Regarding FHRLDEPPHICWDETHFGKMGSYY [POMT2], the protein stability index reads like this: (treatment: DMSO) 2.42 ± 0.51; (treatment: MLN4924 1 uM, 8 h) 2.36 ± 0.4.

FIYTAKLSLNMDNLQDTLEAASFL [KLHL13]: the protein stability index reads like this: (treatment: DMSO) 2.65 ± 0.54; (treatment: MLN4924 1 uM, 8 h) 2.96 ± 0.48.

As for FLDKSGSHGYDMSTFIRRYSRYLN [SNAP91], the protein stability index by setting is: (treatment: DMSO) 2.38 ± 0.4; (treatment: MLN4924 1 uM, 8 h) 2.64 ± 0.49.

As to FLDLERPPTTPQNEEIRAVGRLKR [MFF], the protein stability index (treatment: MLN4924 1 uM, 8 h) amounted to 4.07 ± 0.3.

For the sequence FLGSSFSPVRCGGPGDASPRGCGA [WEE1], the protein stability index is, setting by setting: (treatment: DMSO) 2.27 ± 0.34; (treatment: MLN4924 1 uM, 8 h) 2.61 ± 0.48.

For FLLVQRFGELMRKLWNPRNFKAHV [USP39], the protein stability index by setting is: (treatment: DMSO) 2.47 ± 0.51; (treatment: MLN4924 1 uM, 8 h) 2.54 ± 0.7.

Turning to FLVANFSQIETLTSVFQKKLCTAH [MATN2], the protein stability index is 2.6 ± 0.56 (treatment: DMSO) and 2.52 ± 0.49 (treatment: MLN4924 1 uM, 8 h).

For FNDVAKFLKQGDSADETTAHKTEE [CMTM3], the protein stability index runs as follows: (treatment: DMSO) 4.97 ± 0.23; (treatment: MLN4924 1 uM, 8 h) 5.13 ± 0.12.

For the sequence FNIGLPDNIVNCNEFLCTLQKKLD [ZNF277], the protein stability index reads like this: (treatment: DMSO) 2.48 ± 0.32; (treatment: MLN4924 1 uM, 8 h) 2.51 ± 0.35.

For the sequence FRIYKSVIQAVQKSEEGHPFKAYL [RTN3], the protein stability index by setting is: (treatment: DMSO) 2.4 ± 0.23; (treatment: MLN4924 1 uM, 8 h) 2.29 ± 0.21.

As to FRSGALDLDSCSRDGALLGCSLTA [MYORG], the protein stability index runs as follows: (treatment: DMSO) 2.58 ± 0.12; (treatment: MLN4924 1 uM, 8 h) 2.34 ± 0.32.

As for FSDLQVYSYRRLGEEALSLQALDP [SLC22A15], the protein stability index by setting is: (treatment: DMSO) 2.73 ± 0.34; (treatment: MLN4924 1 uM, 8 h) 2.84 ± 0.31.

Where the note is “treatment: MLN4924 1 uM, 8 h”, FSKNLKLGIHEDSTNRRRLSELLR [HSP90AB1] returned a protein stability index of 2.43 ± 0.39.

With FSRVCRLHRGQLSLFCLEDKELLC [TRIM35], the protein stability index by setting is: (treatment: DMSO) 2.22 ± 0.56; (treatment: MLN4924 1 uM, 8 h) 2.19 ± 0.18.

As to FTGVITQGRNSLWLSDWVTSYKVM [CPXM2], the protein stability index (treatment: DMSO) was 3.21 ± 0.45 and the protein stability index (treatment: MLN4924 1 uM, 8 h) was found to be 2.94 ± 0.84.

On to FTSGTGHFTAMVWKNTKKMGVGKA [GLIPR2], for which the protein stability index was found to be 2.66 ± 0.29 (treatment: DMSO) and 2.74 ± 0.2 (treatment: MLN4924 1 uM, 8 h).

In the case of FVFFVLLNMFLAIINDTYSEVKEE [PKD2L1], the protein stability index amounted to 3.36 ± 0.23 (treatment: DMSO) and 3.12 ± 0.26 (treatment: MLN4924 1 uM, 8 h).

With FYHDHTKIIICSQNEEYLLTYINE [PLK2], the protein stability index stood at 2.57 ± 0.59 (treatment: DMSO) and 2.58 ± 0.54 (treatment: MLN4924 1 uM, 8 h).

On to GAARSFQEVTEPAVVAVDRQAIFP [PXN], for which the protein stability index is, setting by setting: (treatment: DMSO) 4.1 ± 0.26; (treatment: MLN4924 1 uM, 8 h) 4.04 ± 0.59.

For the sequence GACPGADEAGGGAEGDSWEEEGFG [WEE1], the protein stability index by setting is: (treatment: DMSO) 5.35 ± 0.24; (treatment: MLN4924 1 uM, 8 h) 5.54 ± 0.21.

GAGAGSSLLDVAEPGGPGWLPESD [SMAD6] gave a protein stability index (treatment: DMSO) of 5.23 ± 0.19 and a protein stability index (treatment: MLN4924 1 uM, 8 h) of 5.01 ± 0.25.

As for GASHVLALSTERELFAWGRGDSGR [NEK8], the protein stability index by setting is: (treatment: DMSO) 3.38 ± 0.31; (treatment: MLN4924 1 uM, 8 h) 3.42 ± 0.26.

GCANNLLVHHRAAHSNEILIFSVQ [KLHDC2]: the protein stability index is 2.49 ± 1 (treatment: DMSO) and 2.67 ± 0.58 (treatment: MLN4924 1 uM, 8 h).

GCEDEYLVNPTCQVLVKDFTFEGF [ZER1] displayed a protein stability index (treatment: DMSO) of 2.89 ± 0.47 and a protein stability index (treatment: MLN4924 1 uM, 8 h) of 2.85 ± 0.4.

For GCFRSQGASLRLAVEDGLQQFKQY [M1AP], the protein stability index amounted to 2.88 ± 0.68 (treatment: DMSO) and 2.78 ± 0.074 (treatment: MLN4924 1 uM, 8 h).

Consider GCSLHEEDTQRHETYHQQGQCQVL [TCAP], for which the protein stability index by setting is: (treatment: DMSO) 4.35 ± 0.14; (treatment: MLN4924 1 uM, 8 h) 4.32 ± 0.41.

With GCSSTQGNGRPGRPSQYRPDGLRS [LCOR], the protein stability index worked out at 4.07 ± 0.085 (treatment: DMSO) and 4.14 ± 0.17 (treatment: MLN4924 1 uM, 8 h).

As for GDKNEEQVLNAIEAYTEHRPEITS [ZER1], the protein stability index is, setting by setting: (treatment: DMSO) 5.33 ± 0.2; (treatment: MLN4924 1 uM, 8 h) 5.16 ± 0.22.

For GDVCYADVYRDGTGVVEFVRKEDM [SRSF1], the protein stability index came to 4.22 ± 0.26 (treatment: DMSO) and 4.37 ± 0.042 (treatment: MLN4924 1 uM, 8 h).

For the sequence GEDQWNPNGKHSTNFVSRYDPRFN [KLHL14], the protein stability index (treatment: DMSO) was 3.83 ± 0.23 and the protein stability index (treatment: MLN4924 1 uM, 8 h) came to 3.57 ± 0.41.

GEEQVELSTIEELIKDAIVSTQPA [C2CD2L]: the protein stability index reads like this: (treatment: DMSO) 4.69 ± 0.3; (treatment: MLN4924 1 uM, 8 h) 4.7 ± 0.16.

Regarding GFGSKNTAFCTHVFPETAFIAVTS [TBX5], the protein stability index amounted to 2.28 ± 0.42 (treatment: DMSO) and 2.09 ± 0.3 (treatment: MLN4924 1 uM, 8 h).

For the sequence GFKHRLWVYSGRRGVHCWVCDESV [PRIM1], the protein stability index was determined as 2.81 ± 1.4 (treatment: DMSO) and 2.31 ± 0.59 (treatment: MLN4924 1 uM, 8 h).

As for GFVDLLDGENLKNEEETPSCMASL [CDC25A], the protein stability index was determined as 4.64 ± 0.25 (treatment: DMSO) and 4.62 ± 0.13 (treatment: MLN4924 1 uM, 8 h).

For the sequence GGFMGYSAENIPGCSSSGSCSQGS [CRY1], the protein stability index amounted to 4.14 ± 0.3 (treatment: DMSO) and 4.4 ± 0.28 (treatment: MLN4924 1 uM, 8 h).

GGGYSSVRYSDCCERVVINVSGLR [KCNA4]: the protein stability index runs as follows: (treatment: DMSO) 2.23 ± 0.26; (treatment: MLN4924 1 uM, 8 h) 2.34 ± 0.29.

For GGHTREARIQTLEPDNWMKEVMLF [RSAD1], the protein stability index runs as follows: (treatment: DMSO) 2.51 ± 0.25; (treatment: MLN4924 1 uM, 8 h) 2.34 ± 0.34.

As for GGIQEGAVTPAGVVNKYQINGLQA [DHCR7], the protein stability index is 3.93 ± 0.27 (treatment: DMSO) and 4.17 ± 0.22 (treatment: MLN4924 1 uM, 8 h).

For the sequence GGLGTPLRLPMLNTEVVQVAAGRT [NEK8], the protein stability index runs as follows: (treatment: DMSO) 4.11 ± 0.35; (treatment: MLN4924 1 uM, 8 h) 4.06 ± 0.31.

GGPADLAGLEDEDVIIEVNGVNVL [PDZK1] registered a protein stability index (treatment: MLN4924 1 uM, 8 h) of 4.46 ± 0.32.

Regarding GGQEEASQEAGLPAGAGPSPTFPA [SEPHS2], the protein stability index was found to be 5.56 ± 0.1 (treatment: DMSO) and 5.25 ± 0.23 (treatment: MLN4924 1 uM, 8 h).

On to GGRTALHHAALNGHVEMVNLLLAK [ANKRD44], for which the protein stability index by setting is: (treatment: DMSO) 2.76 ± 0.35; (treatment: MLN4924 1 uM, 8 h) 2.69 ± 0.23.

With GGTPIRGALQIEQSEESDQGKYEC [PTPRD], the protein stability index amounted to 5.57 ± 0.38 (treatment: DMSO) and 5.4 ± 0.31 (treatment: MLN4924 1 uM, 8 h).

Take GGYETFYSEYPECCVDVKPISQEK [DUSP5]: the protein stability index came out at 4.25 ± 0.29 (treatment: DMSO) and 4.22 ± 0.18 (treatment: MLN4924 1 uM, 8 h).

For the sequence GHSSSVEMFLYFEDHGLVTCSADH [WDR41], the protein stability index runs as follows: (treatment: DMSO) 2.16 ± 0.34; (treatment: MLN4924 1 uM, 8 h) 2.25 ± 0.29.

Sequence GIENEEDTSKQKKMETMYPFIVTL [ZNF449] showed a protein stability index (treatment: DMSO) of 2.39 ± 0.38 and a protein stability index (treatment: MLN4924 1 uM, 8 h) of 2.36 ± 0.1.

GIGGGIGGGSSRISSVLAGGSCRA [KRT16]: the protein stability index stood at 3.87 ± 0.23 (treatment: DMSO) and 4.05 ± 0.24 (treatment: MLN4924 1 uM, 8 h).

In turn, GILGFNSAEWFITAVGAILAGGLC [ACSBG2] showed a protein stability index (treatment: MLN4924 1 uM, 8 h) of 3.62 ± 0.54.

GKDEIEAAVKAAREAFPSWSSRSP [ALDH8A1] showed a protein stability index (treatment: DMSO) of 4.5 ± 0.32 and a protein stability index (treatment: MLN4924 1 uM, 8 h) of 4.29 ± 0.23.

Turning to GKEVSGDQIEDMFEQGKWDVFSEN [STX11], the protein stability index was 4.33 ± 0.31 (treatment: DMSO) and 4.31 ± 0.35 (treatment: MLN4924 1 uM, 8 h).

For GKFIRLKNTSEQDQPMGGWEMIRK [LMNB1], the protein stability index (treatment: DMSO) was 3.73 ± 0.083 and the protein stability index (treatment: MLN4924 1 uM, 8 h) is 3.7 ± 0.2.

For the sequence GKKRCKDIKRLLVNFMYLQSLLQP [SMG5], the protein stability index by setting is: (treatment: DMSO) 2.428 ± 0.007; (treatment: MLN4924 1 uM, 8 h) 2.48 ± 0.41.

In the case of GKPGDRNCPEFPPPDRTLGCWATD [RSPH3], the protein stability index reads like this: (treatment: DMSO) 4.03 ± 0.28; (treatment: MLN4924 1 uM, 8 h) 4.32 ± 0.24.
